Measurements reported in paper PMC6872946 (Growth factors (Chur, Switzerland), 2019).
Read-outs that look alike come from different tables or passages of the source. Values belong to the molecule of their own block, whether it stands above or below them.

Columns and labels:
[1] = biological target: PDGF-C growth factor domain (human); test: immunoblot after cleavage with matriptase
[2] = biological target: the molecule itself; test: non-reducing SDS-PAGE and immunoblot
[3] = biological target: the molecule itself; test: non-reducing SDS-PAGE and immunoblot; remark: listed apart in the source

stoichiometry N [1]: 2
Molecule: PDGF-C growth factor domain (domain or fragment)

B1: truncated PDGF-C isoform with a C-terminal myc tag (t-PDGF-C-myc), in COS-1 cells (natural protein, human, UniProt Q9NRA1 164-345, looked up)
chain: MPQFTEAVSPSVLPPSALPLDLLNNAITAFSTLEDLIRYLEPERWQLDLEDLYRPTWQLLGKAFVFGRKSRVVDLNLLTEEVRLYSCTPRNFSVSIREELKRTDTIFWPGCLLVKRCGGNCACCLHNCNECQCVPSKVTKKYHEVLQLRPKTGVRGLHKSLTDVALEHHEECDCVCRGSTGG
stoichiometry N [2]: 2

B2: truncated PDGF-C isoform with a myc tag (t-PDGF-C/myc), stably expressed in BT-549 cells (natural protein, human, UniProt Q9NRA1 164-345, looked up)
chain: B1 chain
stoichiometry N [3]: 2
